Reference: US20220356230A1 (published 2022)

T1: MERS-CoV (NCoV/Novel coronavirus) Spike Protein fragment (RBD, aa 367-606, His Tag) (Sino 40071-V08B1) (MERS-CoV, UniProt K9N5Q8 367-606)
T1 sequence: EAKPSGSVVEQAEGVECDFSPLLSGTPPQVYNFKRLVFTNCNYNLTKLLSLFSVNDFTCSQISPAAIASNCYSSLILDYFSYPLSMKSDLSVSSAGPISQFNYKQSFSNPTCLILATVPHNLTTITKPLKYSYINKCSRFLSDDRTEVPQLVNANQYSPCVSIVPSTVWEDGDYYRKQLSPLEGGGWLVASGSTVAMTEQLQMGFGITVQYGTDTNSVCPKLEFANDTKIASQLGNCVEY

T2: MERS-CoV (NCoV/Novel coronavirus) Spike Protein S1 Protein (aa 1-725, His Tag) (Sino 40069-V08B1) (MERS-CoV, UniProt K9N5Q8 18-725)
T2 sequence: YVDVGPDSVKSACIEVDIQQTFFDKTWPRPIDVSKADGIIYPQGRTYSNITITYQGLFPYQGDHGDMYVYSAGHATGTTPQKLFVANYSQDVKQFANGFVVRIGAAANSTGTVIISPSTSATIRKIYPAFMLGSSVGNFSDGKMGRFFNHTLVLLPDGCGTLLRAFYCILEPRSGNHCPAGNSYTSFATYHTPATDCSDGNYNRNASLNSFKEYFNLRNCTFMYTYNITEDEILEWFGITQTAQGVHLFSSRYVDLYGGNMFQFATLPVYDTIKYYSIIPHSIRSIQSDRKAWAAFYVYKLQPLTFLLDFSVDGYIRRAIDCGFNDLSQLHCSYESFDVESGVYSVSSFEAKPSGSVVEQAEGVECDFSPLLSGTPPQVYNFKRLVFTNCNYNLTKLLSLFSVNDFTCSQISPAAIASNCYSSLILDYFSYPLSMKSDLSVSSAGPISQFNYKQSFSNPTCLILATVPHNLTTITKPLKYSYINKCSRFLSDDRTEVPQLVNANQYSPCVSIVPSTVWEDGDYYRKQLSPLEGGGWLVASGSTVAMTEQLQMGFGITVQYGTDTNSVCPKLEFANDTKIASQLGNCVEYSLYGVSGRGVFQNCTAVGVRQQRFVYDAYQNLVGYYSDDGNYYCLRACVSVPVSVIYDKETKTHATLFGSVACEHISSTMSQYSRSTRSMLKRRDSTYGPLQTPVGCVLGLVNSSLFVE


Experiments:
[1] = molecular target: T1, MERS-CoV (NCoV/Novel coronavirus) Spike …; test: Luminex bead assay, supernatant
[2] = molecular target: T2, MERS-CoV (NCoV/Novel coronavirus) Spike …; test: Luminex bead assay, supernatant

Binder | Binding signal (MFI) [1] [MFI] | Binding signal (MFI) [2] [MFI]
mAb10921 (antibody, V domains shown) VH: EVQLVESGGGLVQPGGSLRLSCAASGITVSSNYMSWVRQAPGKGLEWVSVIYSGGSTFYADSVKGRFTISRHNSKNTLYLQMNSLRAEDTAVYYCARERNFDAFDIWGQGTMVTVSS VL: DIQMTQSPSSVSASVGDRVTITCRASQGISSWLAWYQQKPGKAPKLLIYAASSLQSGVPSRFSGSGSGTDFTLTISSLQPEDFATYYCQQANSFPLFTFGPGTKVDIKR | 23 | 
mAb10971 (antibody, V domains shown) VH: EVQLVESGGGLIQPGGSLRLSCAASGVTVSSNYMSWVRQAPGKGLEWVSVIYSGGSTFYSDSVKGRFSISRDNSKNTLYLQMNSLRAEDTAVYYCARDLYYYGMDVWGQGTTVTVSS VL: DIQLTQSPSFLSASVGDRVTITCRASQGISTYLAWYQQKPGKAPKLLIYAASTLQSGVPSRFSGSGSGTEFTLTISSLQPEDFATYYCQQLDSYPGLTFGGGTKVEIKR |  | 19
mAb10936 (antibody, V domains shown) VH: QVQLVESGGGVVQPGRSLRLSCAASGFTFRNYGMHWVRQAPGKGLEWVSVIWYDGSNRYYADSVKGRFTISRDTSKNTLYLQMNSLRAEDTAVYYCARDPPITGTTGGDAFDIWGQGTMVTVSS VL: not shown | 29 | 20
mAb10913 (antibody, V domains shown) VH: EVQLVESGGGLVQPGGSLRLSCAASGFTFRNYEMNWVRQAPGKGLEWVSYITSSGSTMYYADSVKGRFTISRDNAKNSLYLQMNSLRAEDTAVYYCARDGFYYYYAMDVWGQGTTVTVSS VL: QSVLTQPPSVSAAPGQKVTISCSGSSSNIGNNYVSWYQQLPGTAPKLLIYDNNKRPSGIPDRFSGSKSGTSATLGITGLQTGDEADYYCGTWDSSLSVGRVFGTGTKVTVLG | 34 | 26
mAb10914 (antibody, V domains shown) VH: EVQLVESGGGLVQPGGSLRLSCAASGLIVSRNYMIWVRQAPGKGLEWVSVIYSGGSTFYADSVKGRFTISRHNSKNTLYLQMNSLRAEDTAVYYCARDLGTGGMDVWGQGTTVTVSS VL: DIQLTQSPSFLSASVGDRVTITCWASQGISSYLAWYQQKPGKAPKLLIYAASTLQSGVPSRFSGSGSGTEFTLTISSLQPEDFATYYCQQLNSYPLTFGGGTKVEIKR | 31 | 23
mAb10957 (antibody, V domains shown) VH: EVQLVESGGGLVQPGGSLRLSCAASGVTVSSNYMSWVRQAPGKGLEWVSVIYSGGSTFYADSVKGRFTISRDNSKNTLFLQMNSLRIEDTAVYYCARDLGPYGMDVWGQGTTVTVSS VL: DIQLTQSPSFLSASVGDRVTITCRASQGISSYLAWYQQKPGKAPKLLIYAASTLQSGVPSRFSGSGSGTQFILTISSLQPEDFATYYCQQLNSYPGFTFGPGTKVDIKR |  | 19
mAb10984 (antibody, V domains shown) VH: EVQLVESGGGLVQPGGSLRLSCAASGLTVNRNYMSWVRQAPGKGLEWVSLIYSGGSTYYADSVKGRFTISRDNSKNTLYLQMNSLRLEDTAVYYCARGELGIPYGMDVWGQGTTVTVSS VL: QSVLTQPPSVSAAPGQKVTISCSGSSSNIGNNYVSWYQQLPGTAPKLLIYDNNKRPSGIPDRFSGSKSGTSATLGITGLQTGDEADYYCGTWDSSLSAGVFGGGTKLTVLG | 29 | 20
mAb10982 (antibody, V domains shown) VH: EVQLVESGGGLVQPGGSLRLSCAASGLTVSSNYMSWVRQAPGKGLEWVSVIYSGGTTYYADSVKGRFTISRHNSKNTLSLQMNSLRAEDTAVYYCARGEGANYYGMDVWGQGTTVTVSS VL: QSVLTQPPSVSGAPGQRVTISCTGSSSNIGTGYDVHWYQQLPGTAPKLLIYGNSNRPSGVPDRFSGSKSGTSASLAITGLQAEDEADYYCQSYDSSLSGYVVFGGGTKLTVLG | 29 | 
mAb10985 (antibody, V domains shown) VH: EVQLVESGGGLVQPGRSLRLSCAASGFTFDDYAMHWVRQAPGKGLEWVSGISWNRGSIGYADSVKGRFTISRDNAKNSLYLQMSSLRAEDTALYYCAKDGERWDSVVVPSARNGMDVWGQGTTVTVSS VL: QSVLTQPPSVSGAPGQRVTISCTGSSSNIGAGYDVHWYQQLPGTAPKLLIYGNSNRPSGVPDRFSGSKSGTSASLAITGLQAEDEADYYCQSYDSSLSGSYVFGTGTKVTVLG | 31 | 22
mAb10986 (antibody, V domains shown) VH: EVQLVESGGGLVQPGGSLRLSCAASEFTVSSNYMSWVRQAPGKGLEWVSVIYSGGSTFYADSVKGRFTISRDNSKNTLYLQMNSLRAEDTAVYYCARALPYGDLHFDYWGQGTLVTVSS VL: QSVLTQPPSVSGAPGQRVTISCTGSSSNIGTGYDVHWYQQLPGTAPKLLIYGNTNRPSGVPDRFSGSKSGTSASLAITGLQAEDEADYYCQSYDSSLSDSYVFGTGTKVTVLG | 27 | 20
mAb10937 (antibody, V domains shown) VH: QITLKESGPTLVKPTQTLTLTCTFSGFSLSTNVVGVGWIRQPPGKALEWLALIYWNDDKRYSPSLKSRLTITKDTSKNQVVLTMTNMDPVDTATYYCAHGPTGDYFDYWGQGTLVTVSS VL: not shown | 27 | 22
mAb10930 (antibody, V domains shown) VH: EVQLVESGGGLVQPGRSLRLSCAASGFTFDDYAMYWVRQAPGKGLEWVSGISWNSGSIGYADSVKGRFTISRDNAKNSLYLQMNSLRAADTALYYCAKDKDWNSRGYYYYGMDVWGQGTTVTVSS VL: not shown | 27 | 22
mAb10964 (antibody, V domains shown) VH: QVQLQESGPGLVKPSETLSLTCTVSGGSINNYYWIWIRQPPGKGLEWIGYIYHSGSTNYNPSLKSRVTISVDTSKNQFSLKVSSVTAADTAVYYCANMVRGVYEDDYWGQGTLVTVSS VL: DIQMTQSPSSLSASVGDRVTITCRASQSISNYLNWYQQKPGKAPKLLIFAASSLRSGVPSRFSGSGSGTDFTLTISSLHPEDFATYYCQQNYNTPLTFGPGTKVDIKR |  | 19
mAb10920 (antibody, V domains shown) VH: QVQLVESGGGVVQPGRSLRLSCAASGFTFSYYGMHWVRQAPGKGLEWVAVIWYDGSNKFYADSVKGRFTISRDNSKNTLYLQMNSLRAEDTAVYYCAAARPGYYYGMDVWGQGTTVTVSS VL: DIQMTQSPSSLSASVGDRVTITCRASQGISNYLAWFQQKPGKAPNSLIYAASSLQRGVPSKFSGSGSGTDFTLTISSLQPEDFATYYCQQYNSYPRTFGQGTKVEIKR | 39 | 27
mAb10969 (antibody, V domains shown) VH: QVQLVESGGGVVQPGRSLRLSCAASGFTFSSYAMHWVRQAPGKGLEWVAVISYDGSNKYYADSVKGRFTISRDNSKNTLYLQMNSLRAEDTAVYYCARDGRTITMVRGVIDDAFDIWGQGTMVTVSS VL: not shown |  | 19
mAb10923 (antibody, V domains shown) VH: QVQLVQSGAEVKKPGASVKVSCKASGYTFINYYIHWVRQAPGQGLEWMGWINPNSGGTNYAQKFQGRVTMTRDTSISTAYMELSRLRSDDTAVYYCAIITIFGVVTWFDPWGQGTLVTVSS VL: not shown | 37 | 25
mAb10934 (antibody, V domains shown) VH: not shown VL: DIQMTQSPSSLSASVGDRVTITCQASQDIWNYINWYQQKPGKAPKLLIYDASNLKTGVPSRFSGSGSGTDFTFTISSLQPEDIATYYCQQHDDLPPTFGQGTKVEIKR | 24 | 20
mAb10938 (antibody, V domains shown) VH: EVQLVESGGGLVQPGGSLRLSCAVSGFTVSSNYMSWVRQAPGKGLEWVSLIYSGGSTFYADSVKGRFTISRHNSKNTLYLQMNSLRAEDTAVYYCAREGGYSYDYNYWGQGTLVTVSS VL: DIQMTQSPSSLSASVGDRVTITCQASQDIRNYLNWYQQKPGKAPKLLIYDASNLETGVPSRFSGIGSGTDFTFTISSLQPEDIATYYCQQYDNLPITFGQGTRLEIKR | 25 | 20
mAb10935 (antibody, V domains shown) VH: EVQLVESGGGLVQPGGSLRLSCAASGFTVSSNYMSWVRQAPGKGLEWVSLIYSGGSTYYADSVKGRFTISRHNSKNTLYLQMNSLRSEDTAVYYCARVPLGDYYYGMDVWGQGTTVTVSS VL: DIQMTQSPSSLSASVGDRVTITCQASQDINKYLNWYQQKPGKAPKLLIYDASNLETGVPSRFSGSGSGTDFTFTISSLQPEDIATYYCQQSDNLPLTFGGGTKVEIKR | 25 | 
